Reference: publication PMC6994237, “HOPS recognizes each SNARE, assembling ternary trans-complexes for rapid fusion upon engagement with the 4th SNARE” (eLife, 2020)

B1: his6-Vam3 (full length), His6-tagged Qa SNARE (natural protein, S. cerevisiae, UniProt Q12241 1-283, looked up)
chain: MSFFDIEAQSSKGNSQQEPQFSTNQKTKELSNLIETFAEQSRVLEKECTKIGSKRDSKELRYKIETELIPNCTSVRDKIESNILIHQNGKLSADFKNLKTKYQSLQQSYNQRKSLFPLKTPISPGTSKERKDIHPRTEAVRQDPESSYISIKVNEQSPLLHNEGQHQLQLQEEQEQQQQGLSQEELDFQTIIHQERSQQIGRIHTAVQEVNAIFHQLGSLVKEQGEQVTTIDENISHLHDNMQNANKQLTRADQHQRDRNKCGKVTLIIIIVVCMVVLLAVLS
notes: Vam3, vacuolar Qa-SNARE, S. cerevisiae, full length; A 36 amino acyl linker stands between the his6 tag and the N-terminus (Izawa et al., 2012, PMID 22174414); also called His6-Qa; source: E. coli, purified; not shown: His6 (with a 36 amino acyl linker), N-terminal, kept

Key:
Conditions in all cases: both partners purified
[1] = biological target: T1, Qc-SNARE Vam7, full-length, wild-type (inherently water-soluble) (S. cerevisiae, UniProt P32912 1-316); assay: pull-down; his6-tagged Qa or his6-tagged Qb at 4 µM mixed with 4 µM of the other indicated full-length SNAREs in 20 mM HEPES-NaOH pH 7.4, 150 mM NaCl, 10% glycerol, 100 mM ß-octylglucoside, 20 mM imidazole; 1 hr 4°C; nickel-NTA agarose; Coomassie-stained gel
T1 construct: Vam7, vacuolar Qc-SNARE, S. cerevisiae, full length; source: E. coli, purified
T1 sequence (looked up): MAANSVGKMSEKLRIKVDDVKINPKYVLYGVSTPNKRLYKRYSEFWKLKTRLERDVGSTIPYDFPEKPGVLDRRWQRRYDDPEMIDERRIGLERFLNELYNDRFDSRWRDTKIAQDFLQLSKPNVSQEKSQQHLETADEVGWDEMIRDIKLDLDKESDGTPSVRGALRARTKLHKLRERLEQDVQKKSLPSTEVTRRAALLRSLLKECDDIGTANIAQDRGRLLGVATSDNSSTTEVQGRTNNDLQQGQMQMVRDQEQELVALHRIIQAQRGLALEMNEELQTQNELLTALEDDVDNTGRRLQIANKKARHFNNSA

[2] = biological target: T2, Qa-SNARE Vam3, full-length, wild-type (S. cerevisiae, UniProt Q12241 1-283); assay: as above
T2 construct: Vam3, vacuolar Qa-SNARE, S. cerevisiae, full length; Isolated as GST-Qa (Mima et al., 2008); also called GST-Qa; source: E. coli, purified; reconstituted into proteoliposomes
T2 sequence (looked up): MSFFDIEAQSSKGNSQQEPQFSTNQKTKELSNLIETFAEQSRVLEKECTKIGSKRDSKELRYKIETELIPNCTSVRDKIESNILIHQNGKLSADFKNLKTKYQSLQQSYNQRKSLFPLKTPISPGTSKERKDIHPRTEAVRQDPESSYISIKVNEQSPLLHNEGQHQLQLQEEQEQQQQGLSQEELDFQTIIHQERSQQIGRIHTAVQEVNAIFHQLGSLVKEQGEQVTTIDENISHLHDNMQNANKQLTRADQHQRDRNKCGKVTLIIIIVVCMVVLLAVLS

[3] = biological target: T2, Qa-SNARE Vam3, full-length, wild-type; assay: pull-down; GST-tagged R at 4 µM mixed with 4 µM of the other indicated full-length SNAREs in 20 mM HEPES-NaOH pH 7.4, 150 mM NaCl, 10% glycerol, 100 mM ß-octylglucoside; 1 hr 4°C; glutathione agarose 4B; Coomassie-stained gel
[4] = biological target: T2, Qa-SNARE Vam3, full-length, wild-type; assay: co-IP; Ypt7/R and Ypt7/QaQb proteoliposomes incubated 33 min with or without 50 nM HOPS and 4 μM Qc; solubilised in modified RIPA buffer with 5 μM GST-R; precipitated with anti-Qa antibody on protein A magnetic beads, 4°C 2 hr; immunoblot for R
[5] = biological target: B1; assay: pull-down; his6-tagged Qa or his6-tagged Qb at 4 µM mixed with 4 µM of the other indicated full-length SNAREs in 20 mM HEPES-NaOH pH 7.4, 150 mM NaCl, 10% glycerol, 100 mM ß-octylglucoside, 20 mM imidazole; 1 hr 4°C; nickel-NTA agarose; Coomassie-stained gel

Binder: B1
- binding result [1]: binds

B2: his6-Vti1 (full length), his6-tagged Qb SNARE (natural protein, S. cerevisiae, UniProt Q04338 1-217, looked up)
chain: MSSLLISYESDFKTTLEQAKASLAEAPSQPLSQRNTTLKHVEQQQDELFDLLDQMDVEVNNSIGDASERATYKAKLREWKKTIQSDIKRPLQSLVDSGDRDRLFGDLNASNIDDDQRQQLLSNHAILQKSGDRLKDASRIANETEGIGSQIMMDLRSQRETLENARQTLFQADSYVDKSIKTLKTMTRRLVANKFISYAIIAVLILLILLVLFSKFK
notes: Vti1, vacuolar Qb-SNARE, S. cerevisiae, full length; A 36 amino acyl linker stands between the his6 tag and the N-terminus (Izawa et al., 2012, PMID 22174414); also called his6-Qb; source: E. coli, purified; not shown: His6 (with a 36 amino acyl linker), N-terminal, kept
- binding result [2]: binds

B3: GST-Nyv1, GST-tagged full-length R SNARE (natural protein, S. cerevisiae, UniProt Q12255 1-253, looked up)
chain: MKRFNVSYVEVIKNGETISSCFQPFQKNENYGTITSANEQITPVIFHNLIMDMVLPKVVPIKGNKVTKMSMNLIDGFDCFYSTDDHDPKTVYVCFTLVDMPKILPIRILSGLQEYESNATNELLSSHVGQILDSFHEELVEYRNQTLNSSGNGQSSNGNGQNTISDIGDATEDQIKDVIQIMNDNIDKFLERQERVSLLVDKTSQLNSSSNKFRRKAVNIKEIMWWQKVKNITLLTFTIILFVSAAFMFFYLW
notes: Nyv1, vacuolar R-SNARE, S. cerevisiae, full length, cloned into pGST parallel1; Vector pGST parallel1 (Sheffield et al., 1999), BamHI/SalI; also called GST-R; GST-tagged R SNARE; source: E. coli Rosetta(DE3)pLysS, purified (glutathione-Sepharose 4B, in β-octylglucoside)
- binding result [3]: binds

B4: R-SNARE Nyv1, full-length, wild-type, untagged (natural protein, S. cerevisiae, UniProt Q12255 1-253, looked up)
chain: MKRFNVSYVEVIKNGETISSCFQPFQKNENYGTITSANEQITPVIFHNLIMDMVLPKVVPIKGNKVTKMSMNLIDGFDCFYSTDDHDPKTVYVCFTLVDMPKILPIRILSGLQEYESNATNELLSSHVGQILDSFHEELVEYRNQTLNSSGNGQSSNGNGQNTISDIGDATEDQIKDVIQIMNDNIDKFLERQERVSLLVDKTSQLNSSSNKFRRKAVNIKEIMWWQKVKNITLLTFTIILFVSAAFMFFYLW
notes: Nyv1, vacuolar R-SNARE, S. cerevisiae, full length; source: E. coli, purified; buffer exchanged into β-octylglucoside; reconstituted into proteoliposomes
- binding result [4]: binds
- binding result [5]: binds

B5: Qb-SNARE Vti1, full-length, wild-type (natural protein, S. cerevisiae, UniProt Q04338 1-217, looked up)
chain: MSSLLISYESDFKTTLEQAKASLAEAPSQPLSQRNTTLKHVEQQQDELFDLLDQMDVEVNNSIGDASERATYKAKLREWKKTIQSDIKRPLQSLVDSGDRDRLFGDLNASNIDDDQRQQLLSNHAILQKSGDRLKDASRIANETEGIGSQIMMDLRSQRETLENARQTLFQADSYVDKSIKTLKTMTRRLVANKFISYAIIAVLILLILLVLFSKFK
notes: Vti1, vacuolar Qb-SNARE, S. cerevisiae, full length; the text names it Qb without a tag; also called GST-Qb; source: E. coli, purified; buffer exchanged into β-octylglucoside; reconstituted into proteoliposomes
- binding result [5]: binds
